The labels stand for the following.
B1: suPAR_DB01_A07 (scFv, V domains shown)
VH: QVQLVQSGAEVKKPGASVKVSCKASGGTFTSYYMHWVRQAPGQGLEWMGWIDHENGSTSYDQKFQGRVTMTRDTSTSTVYMELSSLRSEDTAVYYCARGYDVDWFVYWGQGTLVTVSS
VL: DIQMTQSPSSLSASVGDRVTITCSARSSVSYMYWYQQKPGKAPKLLIYRTSNLASGVPSRFSGSGSGTDFTLTISSLQPEDFATYYCQQYHSYPPTFGGGTKVEIK
notes: screened as scFv
B2: suPAR_DB01_C09 (scFv, V domains shown)
VH: B1 VH with G27F, T28N, F29I, T30K, S31D, M34I, H53P, S57N, S59I, D61A
VL: B1 VL
notes: screened as scFv
B3: suPAR_DB01_D08 (scFv, V domains shown)
VH: B1 VH with G27Y, S59I, D61A
VL: B1 VL with S24R, R26S
notes: screened as scFv
B4: suPAR_DB01_C07 (scFv, V domains shown)
VH: B1 VH with G27Y
VL: B1 VL with S24R, S27Q
notes: screened as scFv
B5: suPAR_DB01_B11 (scFv, V domains shown)
VH: B1 VH with G27Y, S31D
VL: B1 VL
notes: screened as scFv
B6: suPAR_DB01_D03 (scFv, V domains shown)
VH: B1 VH with S31N, S57N, S59I
VL: B1 VL
notes: screened as scFv
B7: suPAR_DB01_C08 (scFv, V domains shown)
VH: B1 VH with G27Y, S31G, S57N, S59I, D61A
VL: B1 VL
notes: screened as scFv
B8: suPAR_DB01_B01 (scFv, V domains shown)
VH: B1 VH with G27Y, S31D, S57N, S59I
VL: B1 VL with R26S, S27Q
notes: screened as scFv
B9: suPAR_DB01_C11 (scFv, V domains shown)
VH: B1 VH with H53P, S59I
VL: B1 VL
notes: screened as scFv
B10: suPAR_DB01_C10 (scFv, V domains shown)
VH: B1 VH with G27Y, S31N, H53P, S57N, S59I, D61A
VL: B1 VL with S24R, V29I
notes: screened as scFv
B11: suPAR_DB01_B06 (scFv, V domains shown)
VH: B1 VH with G27Y, S31D, S57N, S59I
VL: B1 VL with S24R
notes: screened as scFv
B12: suPAR_DB01_B03 (scFv, V domains shown)
VH: B1 VH with G27F, T28N, F29I, T30K, S31D, M34I, H53P, S57N, S59I, D61A
VL: B1 VL with S24R, R26S
notes: screened as scFv
B13: suPAR_DB01_C04 (scFv, V domains shown)
VH: B1 VH with G27Y, S31G, H53P, N55G, S59I
VL: B1 VL
notes: screened as scFv
B14: suPAR_DB01_B04 (scFv, V domains shown)
VH: B1 VH with G27Y, S57N, S59I
VL: B1 VL with R26S
notes: screened as scFv
B15: suPAR_DB01_B12 (scFv, V domains shown)
VH: B1 VH with G27Y, H53P, S57N, S59I
VL: B1 VL
notes: screened as scFv
B16: suPAR_DB01_A12 (scFv, V domains shown)
VH: B1 VH with G27Y, S31G, H53P, N55G, S57N, S59I, D61A
VL: B1 VL
notes: screened as scFv
B17: suPAR_DB01_C12 (scFv, V domains shown)
VH: B1 VH with G27D, S57N, S59I
VL: B1 VL
notes: screened as scFv
B18: suPAR_DB01_D04 (scFv, V domains shown)
VH: B1 VH with G27Y, S59I, D61A
VL: B1 VL
notes: screened as scFv
B19: suPAR_DB01_B02 (scFv, V domains shown)
VH: B1 VH with G27Y, S31N, S57N, S59I
VL: B1 VL
notes: screened as scFv
B20: suPAR_DB01_D02 (scFv, V domains shown)
VH: B1 VH with G27Y, H53P, E54N, N55T, S57D, S59N, D61A
VL: B1 VL with S24R
notes: screened as scFv
B21: suPAR_DB01_B05 (scFv, V domains shown)
VH: B1 VH with G27Y, S31N, H53P, S57N, S59I
VL: B1 VL with S24R, R26S
notes: screened as scFv
B22: suPAR_DB01_A11 (scFv, V domains shown)
VH: B1 VH with G27Y, S31N, S57N, S59I
VL: B1 VL with R26S, S27Q
notes: screened as scFv
B23: suPAR_DB01_D05 (scFv, V domains shown)
VH: B1 VH with G27Y, S31G, Y32S, M34V, S57N, S59I
VL: B1 VL with S27Q
notes: screened as scFv
B24: suPAR_DB01_A10 (scFv, V domains shown)
VH: B1 VH with G27Y, T30S, S31N, S57N, S59I
VL: B1 VL
notes: screened as scFv
B25: suPAR_DB01_B08 (scFv, V domains shown)
VH: B1 VH with G27Y, S31G, H53P, S59I
VL: B1 VL
notes: screened as scFv
B26: suPAR_DB01_C02 (scFv, V domains shown)
VH: B1 VH with G27Y, T30N, S31T, H53P, S57N, S59I
VL: B1 VL with R26S, N52S, A54Q
notes: screened as scFv
B27: suPAR_DB01_B10 (scFv, V domains shown)
VH: B1 VH with G27Y, T30S, H53P, S59I
VL: B1 VL with S27Q, Y31S
notes: screened as scFv
B28: suPAR_DB01_D01 (scFv, V domains shown)
VH: B1 VH with G27Y, S31G, S59I, D61A
VL: B1 VL
notes: screened as scFv

Changes are numbered by the printed parent chain.

In general, koff refers to the rate constant with which the complex falls apart. Read a low koff as slow dissociation.

T1 sequence (Q03405 23-303 limits assumed): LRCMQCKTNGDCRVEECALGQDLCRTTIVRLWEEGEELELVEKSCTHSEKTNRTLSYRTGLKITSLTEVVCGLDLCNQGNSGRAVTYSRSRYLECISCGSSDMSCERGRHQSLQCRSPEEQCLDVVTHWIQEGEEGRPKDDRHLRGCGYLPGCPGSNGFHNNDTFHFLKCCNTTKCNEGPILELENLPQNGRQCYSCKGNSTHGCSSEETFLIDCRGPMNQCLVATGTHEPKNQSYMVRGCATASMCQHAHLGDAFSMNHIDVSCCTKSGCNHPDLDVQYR

The first assay has as its target T1, human soluble urokinase plasminogen activator receptor (suPAR) (human, UniProt Q03405 23-303, limits assumed).
T1 construct: Target antigen of the off-rate screen; also called hsuPAR; human suPAR
In words: off-rate (kdis) screen of scFv clones, biosensor (Octet). On the technique in general: Biolayer interferometry detects binding as a change in optical thickness at a sensor tip.
Regarding B1, the koff was 0.00571 s⁻¹.

In turn, B2 gave a koff of 0.00476 s⁻¹.

Molecule B3 yielded a koff of 0.000666 s⁻¹.

Turning to B4, the off-rate constant (koff) turned out to be 0.00164 s⁻¹. Against the preceding molecule, the koff is about 2.5-fold higher.

With B5, the koff was 0.00273 s⁻¹.

B6 showed a dissociation rate constant (koff) of 0.00362 s⁻¹.

As to B7, the off-rate (koff) was determined as 0.0013 s⁻¹.

B8 showed an off-rate (koff) of 0.0028 s⁻¹.

Molecule B9 gave a koff of 0.00226 s⁻¹.

The molecule B10 yielded a koff of 0.00363 s⁻¹. This koff is about 1.6-fold higher than that of the molecule before.

The molecule B11 showed a koff of 0.00348 s⁻¹.

In turn, B12 had a koff of 0.00329 s⁻¹. The koff values of the last two molecules are within 1.5-fold of each other.

In turn, B13 gave a koff of 0.00403 s⁻¹.

With B14, the koff stood at 0.00206 s⁻¹. This koff lies about 2-fold lower than the previous one.

Regarding B15, the koff turned out to be 0.00298 s⁻¹.

As for B16, the off-rate (koff) worked out at 0.00128 s⁻¹.

In the case of B17, the off-rate constant (koff) was 0.00493 s⁻¹.

With B18, the koff stood at 0.000872 s⁻¹.

Take B19: the koff was 0.00142 s⁻¹.

B20 gave a dissociation rate constant (koff) of 0.00425 s⁻¹.

The molecule B21 showed a koff of 0.00407 s⁻¹.

B22 came in with a koff of 0.0015 s⁻¹. This koff lies about 2.7-fold lower than the previous one.

B23 returned a koff of 0.00224 s⁻¹. This koff and that of the molecule before are within 1.5-fold of each other.

With B24, the koff came to 0.00194 s⁻¹.

Molecule B25 yielded a koff of 0.00371 s⁻¹.

For B26, the koff amounted to 0.00353 s⁻¹.

On to B27, for which the koff is 0.00105 s⁻¹. Compared with the last molecule, the koff is about 3.4-fold lower.

Regarding B28, the dissociation rate constant (koff) was 0.000531 s⁻¹.

The next assay deals with T2, cynomolgus soluble urokinase plasminogen activator receptor (suPAR) (cynomolgus, UniProt Q9GK78 23-303, limits assumed).
T2 construct: Target antigen of the off-rate screen; also called cynomolgus uPAR; cynomolgus suPAR
T2 sequence (Q9GK78 23-303 limits assumed): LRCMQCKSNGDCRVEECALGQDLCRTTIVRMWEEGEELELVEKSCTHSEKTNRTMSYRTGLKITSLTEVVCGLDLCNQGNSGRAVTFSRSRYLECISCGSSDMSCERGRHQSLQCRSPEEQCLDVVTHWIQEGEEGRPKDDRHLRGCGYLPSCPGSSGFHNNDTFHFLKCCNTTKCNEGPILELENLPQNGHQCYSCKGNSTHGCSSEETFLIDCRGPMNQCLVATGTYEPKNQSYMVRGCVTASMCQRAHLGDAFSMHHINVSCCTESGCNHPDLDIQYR
The assay is described as above.
Regarding B1, the koff was 0.00156 s⁻¹.

B2: the koff is 0.000203 s⁻¹.

Take B3: the koff worked out at 7.01e-07 s⁻¹.

B4 came in with an off-rate constant (koff) of 2.66e-05 s⁻¹.

In turn, B5 came in with an off-rate (koff) of 8.79e-05 s⁻¹.

Turning to B6, the koff amounted to 0.000203 s⁻¹.

For B7, the koff was determined as 0.00042 s⁻¹.

B8 came in with a koff of 4.88e-07 s⁻¹.

B9 returned a koff of 8.96e-05 s⁻¹.

B10 displayed a dissociation rate constant (koff) of 0.000266 s⁻¹.

B11: the koff turned out to be 5.62e-07 s⁻¹.

In the case of B12, the dissociation rate constant (koff) was 3.5e-07 s⁻¹.

For the molecule B13, the koff turned out to be 0.000303 s⁻¹.

The molecule B14 had a koff of 8.48e-05 s⁻¹.

The molecule B15 returned a koff of 0.000238 s⁻¹.

B16 gave a koff of 0.000142 s⁻¹.

B17 returned a koff of 0.000105 s⁻¹.

For B18, the koff was 2.53e-05 s⁻¹.

In turn, B19 showed a koff of 0.000177 s⁻¹. This koff is about 7-fold higher than that of the molecule before.

B20 yielded a koff of 0.000343 s⁻¹.

In turn, B21 gave a koff of 0.000181 s⁻¹.

In the case of B22, the koff came out at 0.000479 s⁻¹.

On to B23, for which the koff amounted to 0.000419 s⁻¹.

Turning to B24, the off-rate (koff) came to 0.000299 s⁻¹.

For the molecule B25, the off-rate constant (koff) was 0.000211 s⁻¹. This koff and that of the molecule before are within 1.5-fold of each other.

In turn, B26 came in with an off-rate (koff) of 0.000234 s⁻¹.

The molecule B27 registered an off-rate constant (koff) of 0.00108 s⁻¹. Against the preceding molecule, the koff is about 4.6-fold higher.

Regarding B28, the off-rate constant (koff) amounted to 0.000369 s⁻¹.
